Eight molecules from patent publication US20230126400A1 (Alector, published 2023) can be followed below.

Substitutions are numbered along the chain they refer to.

Assay [1] addresses T1, cynomolgus (cyno) MS4A4A (cynomolgus).
T1 construct: also called cy4A; Cyno 4A
The assay is described as follows: FACS, 300.19 cells, supernatant. The method, then:
(§1) Positive clones identified in Example 22 above were expanded and then rescreened for specificity against U937, K562, and/or 300.19 cells stably overexpressing human MS4A4A or cyno MS4A4A and parental U937, K562, and/or 300.19 cells. These experiments were performed using supernatants from hybridoma clones which had undergone further expansion after initial selection. Briefly, stably transfected cells were labeled with LIVE/DEAD Fixable Aqua Dead Cell Stain Kit (ThermoFisher Scientific Cat#L34957) on ice for 30 minutes. […] 2×10⁵ cells were aliquoted per well in 96-well U-bottom plates and incubated with 50 μl of culture supernatant on ice for 30 minutes. […] Following this secondary incubation, the cells were again washed twice with ice-cold FACS buffer and resuspended in a final volume of 200 μl of FACS buffer. Analysis was performed on a FACS Canto system (BD Biosciences), with gates drawn to exclude dead (Aqua-positive) cells.
(§2) The APC ratio was calculated for each antibody as follows. […] For cell lines overexpressing human MS4A4A (h4A) or cyno MS4A4A (cy4A), the ration was calculated by comparing the binding measured to the binding observed on the corresponding parental cell lines.

Assay [2] addresses T2, human MS4A4A (human, UniProt Q96JQ5 1-239). Put plainly: FACS, K562 cells, supernatant. On the procedure:
as §1, §2
A general note: In flow cytometry, cells or beads pass a laser one at a time.

Assay [3] has as its target T3, human MS4A4A ECL1 peptide (amino acid residues 86-98) (human).
T3 construct: synthetic peptide
T3 peptide: CMASNTYGSNPIS
Put plainly: ELISA, hybridoma supernatant. On the procedure: (§3) Briefly, 96-well polystyrene plates were coated with 1-10 μg/ml of synthetic free or BSA-conjugated peptides in coating buffer (0.05M carbonate buffer, pH9.6, Millipore Sigma C3041) overnight at 4° C. Coated plates were then blocked with ELISA diluent (PBS+0.5% BSA+0.05% Tween20) for 1-hour, washed 3×300 μL in PBST (PBS+0.05% Tween20, Thermo Cat#28352), and then the antibodies were added to the plate (50 μl/ml). After 30 mins incubation (room temperature, with shaking), the plates were washed 3×300 μL in PBST. […] After a final set of washes (3×300 μL in PBST), 50 μL of TMB substrate (BioFx TMBW-1000-01) was added and the reaction was then quenched after 5-10 mins with 50 μL of stop solution (BioFx BSTP-1000-01). The quenched reaction wells were detected for absorbance at 650 nm with a BioTek Synergy Microplate Reader using GENS 2.04 software.
(An ELISA detects its analyte on a solid surface through an enzyme-linked reagent.)

Assay [4] deals with T2, human MS4A4A. The assay is described as follows: FACS, HEK293, supernatant. On the procedure: (§4) Positive clones identified above were expanded and then rescreened for specificity against HEK293 cells overexpressing human MS4A4A or cyno MS4A4A and parental HEK293 cells. These experiments were performed using supernatants from hybridoma clones which had undergone further expansion after initial selection. Briefly, previously prepared, cryopreserved transiently-transfected cells were labeled with LIVE/DEAD Fixable Aqua Dead Cell Stain Kit (ThermoFisher Scientific L34957) on ice for 30 minutes. After a wash with PBS, 2×10⁵ cells were aliquoted per well in 96-well U-bottom plates and incubated with 50 μl of culture supernatant on ice for 30 minutes. […] Following this secondary incubation, the cells were again washed twice with ice-cold FACS buffer and resuspended in a final volume of 200 μl of FACS buffer. Analysis was performed on a FACS Canto system (BD Biosciences), with sort gates drawn to exclude dead (Aqua-positive) cells. Positive clones (fold change of 1.8 or greater) were carried forward for further testing.

Assay [5] concerns the target T1, cynomolgus (cyno) MS4A4A. Put plainly: FACS, HEK293, supernatant. The method, then:
as §4

Assay [6] has as its target T4, human MS4A6A ECL2 peptide (amino acid residues 138-185) (human).
T4 peptide: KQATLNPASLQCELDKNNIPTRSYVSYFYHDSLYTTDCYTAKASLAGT
Put plainly: array SPR. The method, then:
(§5) Binding kinetic characterization of the anti-MS4A4A antibodies to MS4A4A ECL1 and ECL2 and to MS4A6A ECL1 and ECL2 peptides was performed by Carterra (South San Francisco, Calif.) using a proprietary array Surface Plasmon Resonance (SPR) instrument (MX-96) as follows. Antibodies were captured onto a CMD500D chip (Xantec # SPMX CMD500D) using the Continous Flow Microspotter (CFM). First, the chip was activated with 100 mM MES pH 5.5, 100 μL EDC (133 mM final), 100 μL of S-NHS (33.3 mM final), for 7 minutes. […] Anti-MS4A4A hydridoma supernatant or purified anti-MS4A4A antibodies were diluted in HBS-EP+ buffer (Teknova Cat # H8022) and then printed as duplicates with a 20 minute and a 5-minute print from the same sample solution.
(§6) These were then injected on the chip for five minutes, followed by a seven-minute dissociation period at 8 uL per second in a non-regenerative kinetic series. Duplicate measurements for each anti-MS4A4A antibody were taken to ensure reproducibility. Association rates (Kon) and dissociation rates (Koff) were calculated using a single one-to-one Langmuir binding model. The equilibrium dissociation constant (KD) was calculated as the ration of Koff/Kon.

In assay [7] the target is T5, human MS4A6A ECL1 peptide (amino acid residues 68-85) (human).
T5 peptide: SASFSPNFTQVTSTLLNS
Put plainly: array SPR. On the procedure:
as §5, §6

Assay [8] concerns the target T6, BSA-conjugated human MS4A4A ECL2 peptide (amino acid residues 159-179) (human, conjugated to BSA (site not stated)).
T6 construct: also called MS4A4A-ECL2 BSA conjugated peptide; BSA-MS4A4A-ELC2 peptide
T6 peptide: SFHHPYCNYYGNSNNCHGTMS
The assay is described as follows: ELISA, supernatant. The method, then: as §3

The target in assay [9] is T7, human MS4A4A ECL2 peptide (amino acid residues 159-179), free (human).
T7 construct: synthetic peptide; also called huMS4A4A-ELC2 free-peptide
T7 peptide: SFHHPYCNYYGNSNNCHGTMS
Put plainly: peptide ELISA, supernatant.

The target in assay [10] is T3, human MS4A4A ECL1 peptide (amino acid …). The assay is described as follows: peptide ELISA. On the procedure: as §3, with “[…]” for “1-10 μg/ml”, “Cat#C3041)” for “C3041)”, “μl/well).” for “μl/ml).”, “Cat#TMBW-1000-01)” for “TMBW-1000-01)”, “Cat#BSTP-1000-01).” for “BSTP-1000-01).”, “650nm” for “650 nm”

B1: anti-MS4A4A antibody 4A-207 (murine) (antibody, V domains shown)
VH: EVNLEESGGGLVQPGGSMKLSCVASGFTFNNYWMNWVRQSPEKGLEWVAEIRLKSNNYATHYAESVKGRFTISRDDSKSSVYLQMNNLRPEDTAIYYCTTDPPMDYSGQGTPVTVSS
VL: QIVLTQSPAFMSASPGEKVTITCSASSSVSYMHWFQQKPGTSPKLWIYSTSNLVSGVPDRFSGSGSGTSYSLTISRMEAEYAATYYCHQRTSYPWTFGGGTKLEIK
notes: murine hybridoma antibody
With B1, the “fold increase in MFI” value with cynomolgus (cyno) MS4A4A [1] and with human MS4A4A [2] was > 2 fold in each case.

B2: anti-MS4A4A antibody 4A-2 (antibody, V domains shown)
VH: QIQLVQSGPELKKPGETVKISCKASGYTFVDYEMNWVKQAPGKGLEWLGWINTYTGEPTYADDFQGRFAFSLVTSVSTAYLQINNLKHEDMATYLCTRNYYYGNGDVMDYWGQGTSVTVSS
VL: B1 VL with F10I, M32I, V54A, D59A, Y81D, H88Q, S92G, Y93F, W95L, K102Q
notes: murine hybridoma antibody
On to B2, for which the binding result in assay [3] was “no binding”; in [6] it was “no binding (tested: 2000 nM)”; in [7], “no binding (tested: 2000 nM)”; in [8], “binds”. In addition, the “Human 4A:parental cell ratio” value with human MS4A4A [4] was found to be 20.2 ratio. Further, in the assay with cynomolgus (cyno) MS4A4A [5], the “Cyno 4A:parental cell ratio” value is 9.63 ratio.

B3: anti-MS4A4A antibody 4A-203 (murine) (antibody, V domains shown)
VH: DVKLVESGGGLVKLGGSLKLSCAASGFTFSSFYMSWVRQTPEKRLELVAAINSNGGSTYYPDTVKGRFTISRDNAKNTLYLQMSSLKSEDTALYYCARQNYYGSSSYWYFDVWGAGTTVTVSS
VL: EIVLTQSPALMAASPGEKVTITCSVSSSISSSNLHWYRQKSETSPKPWIYGTSNLASGVPVRFSGSGSGTSYSLTISSMEAEDAATYYCQQWSRYPLTFGAGTKLELK
notes: murine hybridoma antibody
For B3, the binding result in [9] and in assay [10] was “no binding” each time.

B4: anti-MS4A4A antibody 4A-209 (murine) (antibody, V domains shown)
VH: EVKLLESGGGLVQPGGSLKLSCAASGFDFSRYWMSWVRQAPGKGLEWIGEIKSDSSTINYTPSLKDKFIISRDNAKNTLYLQMSKVRSEDTALYYCARRGFYDYDAWFAYWGQGTLVTVSS
VL: QIVLTQSPTLMSASPGEKVTMTCSASSSVTYMYWYQQKPRSSPKPWIYLTSNRASGVPTRFSGSGSGTSHSLTISYMEAEDAATYYCQQWSSNPPTFGAGTKLELR
notes: murine hybridoma antibody
On to B4, for which the binding result in [9] and in assay [10] was “no binding” throughout. For the same molecule, the “fold increase in MFI” value in the assay with cynomolgus (cyno) MS4A4A [1] and in the assay with human MS4A4A [2] was > 2 fold throughout.

B5: anti-MS4A4A antibody 4A-201 (murine) (antibody, V domains shown)
VH: QVQLRESGPGLVAPSQSLSITCTVSGFSLSSFGVTWVRQPPGKGLEWLGIIWGDGSTNYHSALISRLSISKDNSKSQVFLKLNRLQTDDTATYYCAKRDYDGREDVMGYWGQGTSVTVSS
VL: DIVMTQSQKFMSTSVGDRVSITCKATQNVRTAVAWYQQKPGQSPKPLIYLASNRHTGVPDRFTGSGSGTDFTLTITNVQSEDLADYFCLQHWSYPLTFGAGTKLEMK
notes: murine hybridoma antibody
Turning to B5, the binding result in [9] and in [10] was “no binding” each time. Further, the “fold increase in MFI” value in the assay with cynomolgus (cyno) MS4A4A [1] and in the assay with human MS4A4A [2] was > 2 fold each time.

B6: anti-MS4A4A antibody 4A-225 (antibody, V domains shown)
VH: B5 VH with R5K, S30T, T35N, V37F, Y59F, I64M, E104D
VL: B5 VL with F10I, T26S, N28T, P46A, T76S
notes: murine hybridoma antibody
As to B6, the binding result in assay [9] and in assay [10] was “no binding” in each case. In addition, the “fold increase in MFI” value with cynomolgus (cyno) MS4A4A [1] and with human MS4A4A [2] was > 2 fold in each case.

B7: anti-MS4A4A antibody 4A-210 (murine) (antibody, V domains shown)
VH: DVKLVESGGGLVKPGGSLKLSCAASGFTFGTYTMSWVRQTPEKRLEWVATISSGGSYTFYPDSVKGRFTISRDNAKNTLYLQMSSLKSEDTAMYYCTRDNTTGDRGWYFDVWGAGTTVTVSS
VL: DIVLTQSPVSLAVSLGQRATISCQASESVSFAGKSLMHWFQQKPGQPPKLLIYRASNLESGVPARFSGSGSESDFTLTIDPVEEDDATMYYCMQSMEDPRTFGGGTKLEIK
notes: murine hybridoma antibody
Consider B7, for which the binding result in [9] and in assay [10] was “no binding” in each case.

B8: anti-MS4A4A antibody 4A-19 (antibody, V domains shown)
VH: QVQLQQSGAELARPGASVKLSCKASGYSFIDYGISWVKQRTGQGLEWIGEIYPRSGNTYYNEKFKGKATLTADKSSSTAYMELRSLTSEDSAVYFCARKGLLRDFDYWGQGTTLTVSS
VL: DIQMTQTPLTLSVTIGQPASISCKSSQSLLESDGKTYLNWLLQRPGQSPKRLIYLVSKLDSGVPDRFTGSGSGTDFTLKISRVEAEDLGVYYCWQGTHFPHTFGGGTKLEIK
notes: murine hybridoma antibody
On to B8, for which the binding result in assay [3] is recorded as “no binding”; in assay [6], “no binding (tested: 2000 nM)”; in [7], “no binding (tested: 2000 nM)”; in assay [8] it was “binds”. In addition, the “Human 4A:parental cell ratio” value with human MS4A4A [4] came out at 1.86 ratio. Besides, in the assay with cynomolgus (cyno) MS4A4A [5], the “Cyno 4A:parental cell ratio” value turned out to be 1.51 ratio.
